B1: KaiA (natural protein, Synechococcus elongatus PCC 7942, UniProt Q79PF6 1-284, looked up)
chain: MLSQIAICIWVESTAILQDCQRALSADRYQLQVCESGEMLLEYAQTHRDQIDCLILVAANPSFRAVVQQLCFEGVVVPAIVVGDRDSEDPDEPAKEQLYHSAELHLGIHQLEQLPYQVDAALAEFLRLAPVETMADHIMLMGANHDPELSSQQRDLAQRLQERLGYLGVYYKRDPDRFLRNLPAYESQKLHQAMQTSYREIVLSYFSPNSNLNQSIDNFVNMAFFADVPVTKVVEIHMELMDEFAKKLRVEGRSEDILLDYRLTLIDVIAHLCEMYRRSIPRET
notes: KaiA, Synechococcus elongatus PCC 7942; A few vector residues may remain after PreScission cleavage (surmised); also called Kai proteins; clock proteins; source: E. coli, purified (GSH resin, GST removed by PreScission protease, size-exclusion chromatography)
B2: KaiB (natural protein, Synechococcus elongatus PCC 7942, UniProt Q79PF5 1-102, looked up)
chain: MSPRKTYILKLYVAGNTPNSVRALKTLKNILEVEFQGVYALKVIDVLKNPQLAEEDKILATPTLAKVLPLPVRRIIGDLSDREKVLIGLDLLYGELQDSDDF
notes: KaiB, Synechococcus elongatus PCC 7942; A few vector residues may remain after PreScission cleavage (surmised); also called Kai proteins; clock proteins; source: E. coli, purified (GSH resin, GST removed by PreScission protease, size-exclusion chromatography)
B3: KaiC (natural protein, Synechococcus elongatus PCC 7942, UniProt Q79PF4 1-519, looked up)
chain: MTSAEMTSPNNNSEHQAIAKMRTMIEGFDDISHGGLPIGRSTLVSGTSGTGKTLFSIQFLYNGIIEFDEPGVFVTFEETPQDIIKNARSFGWDLAKLVDEGKLFILDASPDPEGQEVVGGFDLSALIERINYAIQKYRARRVSIDSVTSVFQQYDASSVVRRELFRLVARLKQIGATTVMTTERIEEYGPIARYGVEEFVSDNVVILRNVLEGERRRRTLEILKLRGTSHMKGEYPFTITDHGINIFPLGAMRLTQRSSNVRVSSGVVRLDEMCGGGFFKDSIILATGATGTGKTLLVSRFVENACANKERAILFAYEESRAQLLRNAYSWGMDFEEMERQNLLKIVCAYPESAGLEDHLQIIKSEINDFKPARIAIDSLSALARGVSNNAFRQFVIGVTGYAKQEEITGLFTNTSDQFMGAHSITDSHISTITDTIILLQYVEIRGEMSRAINVFKMRGSWHDKAIREFMISDKGPDIKDSFRNFERIISGSPTRITVDEKSELSRIVRGVQEKGPES
notes: KaiC, Synechococcus elongatus PCC 7942; The sample is a mixture of phosphorylated and de-phosphorylated KaiC; A few vector residues may remain after PreScission cleavage (surmised); also called Kai proteins; clock proteins; source: E. coli, purified (GSH resin, GST removed by PreScission protease, size-exclusion chromatography)

Target: the molecule itself
Assay: native gel or EMSA; 6% native PAGE of each Kai protein after 4 h of incubation at 30 °C with polyamines (putrescine, spermidine, spermine); 50 mM Tris-HCl pH 8.0, 150 mM NaCl, 5 mM ATP, 5 mM MgCl2, 0.01% Tween-20; total protein 1.0 mg/mL

Protein	binding result
B1	binds
B2	binds
B3	binds

Source: paper PMC6767301, “Polyamines Disrupt the KaiABC Oscillator by Inducing Protein Denaturation” (Molecules, 2019)
